For test [1], the target named is 免疫原A (his标签重组人IL-13蛋白) (human) (UniProt P35225). Briefly: SPR (Biacore), steps as Example 9. On the technique in general: Surface plasmon resonance follows binding to a sensor surface in real time, without labels.
For test [2] the target is unchanged. Briefly: SPR (Biacore), sentence on the group of 表27.
For test [3] the target is unchanged. Briefly: SPR (Biacore), antibody captured on anti-human Fc CM5 chip, immunogen A as analyte, 1:1 global fit.
Another test deals with T1, 鼠IL-13 (小鼠 (mouse), UniProt P20109 19-131, limits assumed).
T1 construct: Bought protein; also called 小鼠IL-13; 鼠IL-13变体
T1 sequence (looked up): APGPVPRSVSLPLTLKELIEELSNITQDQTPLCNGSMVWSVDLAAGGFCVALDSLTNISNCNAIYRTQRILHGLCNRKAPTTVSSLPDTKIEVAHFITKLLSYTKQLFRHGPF
Briefly: ELISA, IL-13 at 0.5 μg/mL on streptavidin plate, serially diluted antibody, HRP second antibody. On the technique in general: In an ELISA, binding on a coated surface is turned into a signal by an enzyme label.

From CN109776677A (SHANGHAI PHARMEXPLORER COMPANY LTD, dated 2019) come the findings set out here.

B1: 35E2C3 (antibody, V domains shown)
VH: EVQLQESGPGLAKPSQTLSLTCSVTGYSITSDYWNWIRKFPGNKLEYMGYISYNGNTYYNPSLKSQISITRDTSKNQLYLQLKSATTEDTATYYCARLAKWTWYFDIWGTGTTVTVSS
VL: DIQMNQSPSSLSASLGDTITITCHASQNINVWLSWYQQKPGSLPKLLIYKASDLHTGVPSRFSGSGSGTGFTLTISSLQPEDIATYYCQQGQSYPYTFGGGTKLEIK
notes: also called 先导抗体; IL-13先导抗体
A word on the Kd: it is the constant that tells how readily two partners part at equilibrium. Low readings indicate higher affinity, high ones lower affinity. One may read the koff as the first-order rate constant of dissociation. Low readings indicate a long-lived complex, high ones a short-lived complex. A word on the kon: it is the rate constant with which the complex forms. Read a low kon as slower complex formation. Turning to B1, the Kd was 860 pM in test [1], < 90000 pM in test [2] and 863 pM in test [3]. In addition, the koff was 0.000248 s⁻¹ in test [1] and 0.00026 s⁻¹ in test [3]. The kon in test [1] worked out at 289000 M⁻¹ s⁻¹; in test [3], 300000 M⁻¹ s⁻¹. Further, the binding result in the test with 鼠IL-13 was “no binding”.

B2: c29D9H8 (antibody, V domains shown)
VH: QVQLQQSGAELVRPGASVTLSCKASGYTFTDYEMHWVKQTPVHGLEWIGGIDPETGGTASNQKFKGKAILTADKSSSTAYMELRSLTSEDSAVYYCTSGDYFGGGPFAYWGQGTLVTVSA
VL: DIKMTQSPSSMYASLGERVTITCKASQDINSYLSWFQQKPGKSPKTLIYRANRLVDGVPSRFSGSGSGQDYSLTISSLDYEDMGIYYCLQYDEFPYTFGGGTKLEIK
In test [1], B2 yielded a dissociation constant Kd of 24.7 pM, an off-rate (koff) of 0.000962 s⁻¹ and an on-rate constant (kon) of 3.9e+07 M⁻¹ s⁻¹. Further, the equilibrium dissociation constant (Kd) in test [2] was < 90000 pM. In test [3], this molecule returned a Kd of 32.4 pM, a koff of 0.000813 s⁻¹ and an on-rate (kon) of 2.51e+07 M⁻¹ s⁻¹.
